Experimental data from patent publication US12006368 (SURROZEN OPERATING, dated 2024).
Positions count from the first letter of the chain named. Values belong to the binder of their own block, whether it stands above or below them.

Key:
[1] = target: T1, Fzd1 cysteine rich domain (CRD), C-terminally biotinylated (human, UniProt Q9UP38 101-230); assay: BLI; **=Kd 100-2000 nM
Experimental: (§1) Binding kinetics of antibody fragments to a variety of Fzd cysteine rich domain (CRD) protein targets (Fzd1, Fzd2, Fzd3, Fzd4, Fzd5, Fzd6, Fzd7, Fzd8, Fzd9 and/or Fzd10 CRDs) was determined by bio-layer interferometry (BLI) using Octet Red 96 (PALL ForteBio, Fremont, CA) instruments at 30° C., 1000 rpm with streptavidin (SA) biosensors. C-terminal biotinylated Fzd CRD recombinant protein was diluted to 20 nM in the running buffer (PBS, 0.05% Tween-20, 0.5% BSA, pH 7.2) and captured to the SA biosensor until coupling length reached 0.2 nm. Following capture of the Fzd CRD, the SA biosensor with captured biotinylated-Fzd CRD was dipped into wells containing the relevant antibody fragment at […] (0, 1.37, 4.12, 12.4, 37, 111.1, 333.3, 1000 nM) in running buffer, plus a well with only running buffer as a reference channel. […] was determined by global fitting, 1:1 binding model according to manufacturer recommended settings.
(§2) Table 1B provides clone IDs, the sequence identifier number of the antibody heavy chain fragment and/or light chain fragment, if present, for illustrative clones. In certain embodiments, the Fzd binding domain is an Fab or was derived from an Fab, so the heavy chain of Table 1B includes VH and CH1 sequence, but not CH2 or CH3 sequences. In certain embodiments, the Fzd binding domain is a VHH or sdAb® or was derived from a VHH or sdAb, so Table 1B includes the VHH domain. […] The Kd values were determined by BLI as described above. Blank entries denote that the binding to the specific Fzd receptor has not yet been determined. The entry of "n.b." indicates no binding.

[2] = target: Fzd2 cysteine rich domain (CRD), C-terminally biotinylated (human, UniProt Q14332 24-155); assay: BLI; **=Kd 100-2000 nM
Experimental: as §1, §2

[3] = target: Fzd7 cysteine rich domain (CRD), C-terminally biotinylated (human, UniProt O75084 36-165); assay: BLI; **=Kd 100-2000 nM
Experimental: as §1, §2

[4] = target: T1, Fzd1 cysteine rich domain (CRD), …; assay: BLI; *=Kd <100 nM
Experimental: as §1, §2

[5] = target: T1, Fzd1 cysteine rich domain (CRD), …; assay: BLI; **=Kd >100 nM
Experimental: as §1
One antibody fragment, clone 001S-A04, was selected for alanine-scanning mutagenesis of CDRs, and the respective Fzd1 binding affinities of the various mutants were determined by Octet BLI as described in Example 1.

B3: 001S-H02 (Fab, V domains shown)
VH: QVQLQESGPGLVKPSETLSLTCTVSGGSISSSSYYWGWIRQHPGKGLEWIGYIYYSGSTYYNPSLKSRVTISVDTSKNQFSLKLNSVTAADTAVYYCARATYGGDAFDIWGQGTMVTVSS
VL: QSVVTQPPSVSGAPGQRVTISCTRSSSNIGAGYDVHWYQQHPGTAPKLLIFGNSIRPSGVPDRFSGSKSGTSATLGITGLQTGDEADYYCGTWDSSLSAWVFGGGTKLTVLG
Kd [1]: 100 to 2000 nM
Kd [2]: 100 to 2000 nM
Kd [3]: 100 to 2000 nM

B6: 002S-B01 (VHH)
VHH: EVQLVESGGGLVQAGGSLRLSCTASGSTFSNYAMGWFRQAPGKEREFVAAISWGGGSTFYSGSVKGRFTISRDSAKNTVHLQMDSLIPEDTAVYYCAAGPIARWYRGDMDYWGKGTLVTVSS
Kd [4]: < 100 nM

B7: 002S-A04 (VHH)
VHH: AVQLVESGGGLVQAGGSLRLSCTASGRTFSSYAMGWFRQAPGKEREFVAAISWSGRSTYYADSVKGRFTISRDNAKNTVYLQMNSLKSEDTAAYYCAAGPIARWYRGDMDYWGKGTLVTVSS
Kd [4]: < 100 nM

B10: 002S-B04 (VHH)
VHH: DVQLVESGGGLVQAGGSLRLSCAASGRTFSSYAMGWFRQAPGKEREFVAAISWSGGSTYYADSVKGRFTISRDNAKNTVYLQMNSLKPEDTAVYYCAAGPNYSWFMPSSSRLIWGQGTLVTVSS
Kd [1]: 100 to 2000 nM

B11: 002S-D04 (VHH)
VHH: QVKLEESGGGLVQAGGSLRLSCAASGGTSSTYAMGWFRQAPGKEREFVAAINRSGGSTYYADSVKGRFTISRDNAKNTVYLQMNSLNPEDTAVYYCAAVFLSRNYEIQEYYRYQGQGTQVTVSS
Kd [1]: 100 to 2000 nM

B12: 001S-A04 mutant VHT6A (Fab, V domains shown)
VH: EVQLVQSGAEVKKPGASVKVSCKASGYTFTSYGISWVRQAPGQGLEWMGWISAYNGNTNYAQKLQGRVTMTTDTSTSTAYMELRSLRSDDTAVYYCASSKEKAAYYYGMDVWGQGTTVTVSS
VL: QAVVLQEPSLSVSPGGTVTLTCGLSSGSVSTNYYPSWYQQTPGQAPRTLIYYTNTRSSDVPERFSGSIVGNKAALTITGAQPDDESVYFCLLYLGRGIWVFGGGTKLTVLG
KD [5]: > 100 nM

B13: 001S-A04 mutant VHY7A (Fab, V domains shown)
VH: B12 VH with A104T, Y105A
VL: B12 VL
KD [5]: > 100 nM

B14: 001S-A04 mutant VHY9A (Fab, V domains shown)
VH: B12 VH with A104T, Y107A
VL: B12 VL
KD [5]: > 100 nM

B15: 001S-A04 mutant VLW9A (Fab, V domains shown)
VH: B12 VH with A104T
VL: B12 VL with W99A
KD [5]: > 100 nM

B16: 003S-E07 (Fab, V domains shown)
VH: QVQLVQSGAEVKKPGSSVKVSCKASGYTFTNNFMHWVRQAPGQGLEWMGWINPNSGGTKYAQKFQGRVTITADESTSTAYMELSSLRSEDTAVYYCARSVGEVGATMLGIGVWYWFDPWGQGTLVTVSS
VL: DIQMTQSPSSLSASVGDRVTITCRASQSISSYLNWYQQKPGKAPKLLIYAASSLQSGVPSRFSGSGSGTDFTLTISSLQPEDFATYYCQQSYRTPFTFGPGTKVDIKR
notes: also called R2M9
Kd [2]: 100 to 2000 nM

B17: 005S-H05 (Fab, V domains shown)
VH: QVQLVQSGAEVKKPGASVKVSCKASGYTFTSYYMHWVRQAPGQGLEWMGRINPNSGGTNYAQKFQGRVTMTRDTSTSTVYMELSSLRSEDTAVYYCARVPDFWSGYLDYWGQGTLVTVSS
VL: DIQMTQSPSSLSASVGDRVTITCRASQGISSALAWYQQKPGKAPKLLIYAASSLQSGVPSRFSGSGSGTDFTLTISSLQPEDFATYYCQQTYSMPITFGQGTRLEIKR
Kd [2]: 100 to 2000 nM

The remaining lines, values ahead:

Kd [1]: 100 to 2000 nM
Kd [2]: 100 to 2000 nM
Kd [3]: 100 to 2000 nM
B1: 001S-B01 (Fab, V domains shown)
VH: QLQLQESGSGLVKPSQTLSLTCAVSGGSISSGGYSWSWIRQPPGKGLEWIGSIYHSGSTYYNPSLKSRLTISVDTSKNQFSLKLSSVTAADTAVYYCARFYYDILTGYSYFDYWGQGTLVTVSS
VL: DIVMTHTPLSLSVTPGEPASISCRSSRSLLDTDDGNTYLDWYLQKPGQSPQLLIHTLSHRASGVPDRFSGSGSGTDFTLKISRVEAEDVGVYYCMQSIQLPWTFGQGTKVEIKR

Kd [1]: 100 to 2000 nM
Kd [2]: 100 to 2000 nM
Kd [3]: 100 to 2000 nM
B2: 001S-G02 (Fab, V domains shown)
VH: QVQLQESGPGLVKPSETLSLTCTVSGGAISGTSYFWGWIRQPPGKGLEWIGSIYYTGNTYYNPSLKSRLTVSVDTSKNQFSLNLNSVTAADTATYYCARIGIAVAAPVDHWGQGTLVTVSS
VL: EIVLTQSPATLSLSPGEGATLSCRASQSVGTYLTWYRQKPGQAPRLLIYDASNRATGIPARFSGSGAGTDFTLKISRVEAEDVGVYYCMQATQFPLTFGQGTKVEIKR

Kd [4]: < 100 nM
Kd [2]: 100 to 2000 nM
Kd [3]: 100 to 2000 nM
B4: 001S-A03 (Fab, V domains shown)
VH: QLQLQESGPGLVKPSQTLSLTCTVSGGSISSGGYYWSWIRQHPGKGLEWIGYIYYSGSTYYNPSLKSRVTISVDKSKNQFSLKLSSVTAADTAVYYCARVRDYYDSSGYYYDYFDYWGQGTLVTVSS
VL: DIQLTQSPSSLSASVGDRVTITCRASRSISSYFNWYQQKPGKAPKLLIYAASSLQSGVPSRFSGSRSGTDFTLTISSLQPEDFATYYCQQADTFPPTFGQGTRLEIKR

Kd [4]: < 100 nM
B5: 001S-B03 (Fab, V domains shown)
VH: QVQLQQWGAGLLKPSETLSLTCAVSGASFSGHYWTWIRQPPGKGLEWIGEIDHTGSTNYEPSLRSRVTISVDTSKNQFSLNLKSVTAADTAVYYCARGGQGGYDWGHYHGLDVWGQGTTVTVSS
VL: SYVLTQPPSVSVSPGQTASITCSGDKVGHKYASWYQQKPGQSPVLVIYEDSQRPSGIPVRFSGSNSGNTATLTISGTQAMDEADYYCQAWDSSTDVVFGGGTKLTVLG
notes: also called 1RC07

Kd [4]: < 100 nM
B8: 002S-C02 (VHH)
VHH: B6 VHH with E1D, A14T, T23V, S27R, S30R, N31A, A49S, G54S, F59Y, S61A

Kd [1]: 100 to 2000 nM
B9: 002S-G02 (VHH)
VHH: AVQLVDSGGGLMQAGGSLRLSCAASGRTFGTWAMGWFRQAPGKEREFVAAISYNGFSTYYSDAVKGRFTISRDNAKNTMYLQMDSLIPEDTAVYYCAAGPIARWYRGDMDYWGKGTQVTVSS
